Data on 1 molecule can be found in US20230218656, “POLYPEPTIDES […] AGAINST VIRAL INFECTION AND USES […]” (QUADRUMIX BIOTECHNOLOGY INC., published 2023).

The target of this data set is sdAb1 (NB07) (Artificial sequence). The data set can be described thus: MST; negative control; p86 says only weak interaction in phage ELISA (FIG. 4). As to conditions: G4. Background: An ELISA detects its analyte on a solid surface through an enzyme-linked reagent.
Sequence of sdAb1 (NB07) (Artificial sequence) (chain, as listed by the source): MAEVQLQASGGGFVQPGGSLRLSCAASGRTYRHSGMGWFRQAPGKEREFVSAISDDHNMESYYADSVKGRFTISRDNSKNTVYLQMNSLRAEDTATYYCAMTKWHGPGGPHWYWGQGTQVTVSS

B1: HBV pre-core promoter G-quadruplex (WT) (structured_DNA)
DNA: CTGGGAGGAGCTGGGGGAGGAGA
With B1, the binding result is “no binding”.
